Data reported in US20160340403A1 (published 2016).
Values belong to the molecule of their own block, whether it stands above or below them.

Legend:
[1] = biological target: PE-conjugated HLA-A*02:01/MART1 26-35 heteroclitic multimer (Proimmune) (human); experiment: structural avidity: flow cytometry, graded A2/MART1 multimer on Jurkat76/CD8αβ transfectants
[2] = biological target: PE-conjugated HLA-A*02:01/MART1 26-35 heteroclitic multimer (Proimmune) (human); experiment: structural avidity: flow cytometry, graded A2/MART1 multimer on Jurkat76 transfectants without CD8
[3] = biological target: HLA-A*02:01 presenting MART1 27-35 peptide (…) on peptide-pulsed T2 cells (human); experiment: cell-based or functional assay
[4] = biological target: MART1 peptide on HLA-A*02:01 (human); experiment: IL-2 ELISPOT; Jurkat76 transfectants without CD8; T2 cells pulsed with graded concentrations of MART1 27-35 peptide; full-length, on cells
[5] = biological target: MART1 peptide on HLA-A*02:01 (human); experiment: staining with graded concentrations of A2/MART1 multimer; Jurkat76/CD8αβ transfectants; full-length, on cells
[6] = biological target: MART1 peptide on HLA-A*02:01 (human); experiment: IL-2 ELISPOT; Jurkat76/CD8αβ transfectants; T2 cells pulsed with graded concentrations of MART1 27-35 peptide; full-length, on cells
[7] = biological target: MART1 peptide on HLA-A*02:01 (human); experiment: staining with graded concentrations of A2/MART1 multimer; Jurkat76 transfectants without CD8; full-length, on cells
[8] = biological target: MART1 peptide on HLA-A*02:01 (human); experiment: staining with graded concentrations of A2/MART1 multimer; Jurkat76/CD8αβ transfectants; full-length, on cells; details: heteroclitic peptide, residues not given
[9] = biological target: MART1 peptide on HLA-A*02:01 (human); experiment: staining with graded concentrations of A2/MART1 multimer; Jurkat76 transfectants without CD8; full-length, on cells; details: heteroclitic peptide, residues not given
[10] = biological target: T1, WT1 peptide on HLA-A*24:02 (human, heteroclitic peptide as printed; the natural WT1 235-243 residues are not given); experiment: cytokine release
T1 peptide: CYTWNQMNL

[11] = chains Valpha:beta TRBV27 TRBJ1-2 CDR3
[12] = chains Valpha:beta TRBV27 TRBJ2-7 CDR3

EC50 of multimer (structural avidity) [8, 12]: 0.01 µg/mL | EC50 of multimer (structural avidity) [9, 12]: 0.05 µg/mL
B3: Clone 788 (SIG35α with clone 788 TCRβ) (protein)
chain 1: QKEVEQNSGPLSVPEGAIASLNCTYSDRGSQSFFWYRQYSGKSPELIMFIYSNGDKEDGRFTAQLNKASQYVSLLIRDSQPSDSATYLCAVSIGFGNVLHCGSGTQVIVLP
chain 2: CASGPSYEQYF

binding result [10]: recognises
B4: Clone T53 (T53 TCRα with TAK1β) (TCR, V domains shown)
Valpha: EDKVVQSPLSLVVHEGDTVTLNCSYEVTNFRSLLWYKQEKKAPTFLFMLTSSGIEKKSGRLSSILDKKELFSILNITATQTGDSAVYLCAVITGGTSYGKLTFGQGTILTVHP
Vbeta: LAGVTQTPRYLIKTRGQQVTLSCSPISGHRSVSWYQQTPGQGLQFLFEYFSETQRNKGNFPGRFSGRQFSNSRSEMNVSTLELGDSALYLCASSLGWRETYNEQFFGPGTRLTVL

binding result [10]: recognises
B6: Clone A262 (A262 TCRα with TAK1β) (TCR, V domains shown)
Valpha: EDKVVQSPLSLVVHEGDTVTLNCSYEVTNFRSLLWYKQEKKAPTFLFMLTSSGIEKKSGRLSSILDKKELFSILNITATQTGDSATYLCAVQNAGGTSYGKLTFGQGTILTVHP
Vbeta: LAGVTQTPRYLIKTRGQQVTLSCSPISGHRSVSWYQQTPGQGLQFLFEYFSETQRNKGNFPGRFSGRQFSNSRSEMNVSTLELGDSALYLCASSLGWRETYNEQFFGPGTRLTVL

binding result [10]: recognises
B7: Clone T262 (T262 TCRα with TAK1β) (TCR, V domains shown)
Valpha: EDQVTQSPEALRLQEGESSSLNCSYTVSGLRGLFWYRQDPGKGPEFLFTLYSAGEEKEKERLKATLTKKESFLHITAPKPEDSATYLCAVQALRNNAGNNRKLIWGLGTSLAVNP
Vbeta: LAGVTQTPRYLIKTRGQQVTLSCSPISGHRSVSWYQQTPGQGLQFLFEYFSETQRNKGNFPGRFSGRQFSNSRSEMNVSTLELGDSALYLCASSLGWRETYNEQFFGPGTRLTVL

Continued, molecule first:

Molecule: A2/MART1-specific TCR, clone DMF5
EC50 [1]: 0.02 µg/mL | EC50 [2]: 0.03 µg/mL | Functional avidity w/CD8 EC50 (IL-2 ELISPOT, peptide-pulsed T2 cells) [3]: 330 nM | Functional avidity w/o CD8 EC50 (IL-2 ELISPOT, peptide-pulsed T2 cells) [3]: 1400 nM | Functional avidity with CD8 EC50 (IL-2 ELISPOT, peptide-pulsed T2 cells) [3]: 0.102 µg/mL | Functional avidity without CD8 EC50 (IL-2 ELISPOT, peptide-pulsed T2 cells) [3]: 0.363 µg/mL

Molecule: DMF5 TCR
EC50 of peptide [4]: 1400 nM | EC50 of multimer (structural avidity) [5]: 0.02 µg/mL | EC50 of peptide [6]: 330 nM | EC50 of multimer (structural avidity) [7]: 0.03 µg/mL

B1: Clone 1086 (SIG35α with clone 1086 TCRβ) (protein)
chain 1: QKEVEQNSGPLSVPEGAIASLNCTYSDRGSQSFFWYRQYSGKSPELIMFIYSNGDKEDGRFTAQLNKASQYVSLLIRDSQPSDSATYLCAVSIGFGNVLHCGSGTQVIVLP
chain 2: CASSLHGPGGYTF
EC50 of multimer (structural avidity) [8, 11]: 0.01 µg/mL | EC50 of multimer (structural avidity) [9, 11]: 0.04 µg/mL

B2: Clone 523 (SIG35α with clone 523 TCRβ) (protein)
chain 1: QKEVEQNSGPLSVPEGAIASLNCTYSDRGSQSFFWYRQYSGKSPELIMFIYSNGDKEDGRFTAQLNKASQYVSLLIRDSQPSDSATYLCAVSIGFGNVLHCGSGTQVIVLP
chain 2: CASGSYEQYF
EC50 of multimer (structural avidity) [8, 12]: 0.3 µg/mL

B5: Clone T243 (T243 TCRα with TAK1β) (TCR, V domains shown)
Valpha: EDKVVQSPLSLVVHEGDTVTLNCSYEVTNFRSLLWYKQEKKAPTFLFMLTSSGIEKKSGRLSSILDKKELFSILNITATQTGDSAVYLCAVLTQTGANNLFFGTGTRLTVIP
Vbeta: LAGVTQTPRYLIKTRGQQVTLSCSPISGHRSVSWYQQTPGQGLQFLFEYFSETQRNKGNFPGRFSGRQFSNSRSEMNVSTLELGDSALYLCASSLGWRETYNEQFFGPGTRLTVL
binding result [10]: recognises
